Assay [1] deals with individual catalytic domain of human MT2-MMP (human).
Assay [2] concerns the target individual catalytic domain of human MT5-MMP (human).
The target in assay [3] is individual catalytic domain of human MT3-MMP (human).
The target in assay [4] is individual catalytic domain of human MT4-MMP (human).
Assay [5] addresses individual catalytic domain of human MT6-MMP (human).

Here are results for one molecule from paper PMC5356841.

Bounds are passed on as bounds.

Sequence of individual catalytic domain of human MT4-MMP (human) (Q9ULZ9 36-603): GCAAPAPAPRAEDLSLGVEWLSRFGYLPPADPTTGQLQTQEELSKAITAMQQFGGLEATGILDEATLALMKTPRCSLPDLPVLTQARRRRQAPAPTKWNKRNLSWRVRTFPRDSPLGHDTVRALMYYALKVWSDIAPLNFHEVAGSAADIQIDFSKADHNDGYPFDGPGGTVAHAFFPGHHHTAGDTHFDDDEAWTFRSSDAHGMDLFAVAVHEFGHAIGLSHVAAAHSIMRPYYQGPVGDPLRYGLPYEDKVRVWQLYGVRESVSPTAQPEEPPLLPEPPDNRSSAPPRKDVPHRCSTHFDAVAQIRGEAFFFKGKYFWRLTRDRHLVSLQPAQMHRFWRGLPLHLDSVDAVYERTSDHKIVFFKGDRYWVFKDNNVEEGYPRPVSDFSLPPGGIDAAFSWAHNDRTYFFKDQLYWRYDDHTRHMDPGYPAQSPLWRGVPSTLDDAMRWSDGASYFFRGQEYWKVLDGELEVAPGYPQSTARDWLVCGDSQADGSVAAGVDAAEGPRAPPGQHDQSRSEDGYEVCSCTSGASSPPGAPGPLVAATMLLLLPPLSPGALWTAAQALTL
Sequence of individual catalytic domain of human MT5-MMP (human) (Q9Y5R2 53-645): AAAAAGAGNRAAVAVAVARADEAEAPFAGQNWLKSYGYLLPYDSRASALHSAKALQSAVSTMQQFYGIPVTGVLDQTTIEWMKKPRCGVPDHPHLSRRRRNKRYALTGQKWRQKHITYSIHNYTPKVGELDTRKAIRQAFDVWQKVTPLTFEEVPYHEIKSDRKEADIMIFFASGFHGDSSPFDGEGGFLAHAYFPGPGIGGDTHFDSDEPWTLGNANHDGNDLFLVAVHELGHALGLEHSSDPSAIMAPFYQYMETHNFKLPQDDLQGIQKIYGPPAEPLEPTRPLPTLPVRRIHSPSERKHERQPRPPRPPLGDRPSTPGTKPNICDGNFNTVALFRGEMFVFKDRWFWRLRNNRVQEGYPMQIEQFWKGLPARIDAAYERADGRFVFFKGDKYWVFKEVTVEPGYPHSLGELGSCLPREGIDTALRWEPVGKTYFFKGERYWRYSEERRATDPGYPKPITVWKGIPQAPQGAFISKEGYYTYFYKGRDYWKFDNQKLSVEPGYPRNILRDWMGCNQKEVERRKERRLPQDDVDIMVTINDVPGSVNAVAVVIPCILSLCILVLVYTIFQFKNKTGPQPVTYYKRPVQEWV
Sequence of individual catalytic domain of human MT2-MMP (human) (P51511 42-669): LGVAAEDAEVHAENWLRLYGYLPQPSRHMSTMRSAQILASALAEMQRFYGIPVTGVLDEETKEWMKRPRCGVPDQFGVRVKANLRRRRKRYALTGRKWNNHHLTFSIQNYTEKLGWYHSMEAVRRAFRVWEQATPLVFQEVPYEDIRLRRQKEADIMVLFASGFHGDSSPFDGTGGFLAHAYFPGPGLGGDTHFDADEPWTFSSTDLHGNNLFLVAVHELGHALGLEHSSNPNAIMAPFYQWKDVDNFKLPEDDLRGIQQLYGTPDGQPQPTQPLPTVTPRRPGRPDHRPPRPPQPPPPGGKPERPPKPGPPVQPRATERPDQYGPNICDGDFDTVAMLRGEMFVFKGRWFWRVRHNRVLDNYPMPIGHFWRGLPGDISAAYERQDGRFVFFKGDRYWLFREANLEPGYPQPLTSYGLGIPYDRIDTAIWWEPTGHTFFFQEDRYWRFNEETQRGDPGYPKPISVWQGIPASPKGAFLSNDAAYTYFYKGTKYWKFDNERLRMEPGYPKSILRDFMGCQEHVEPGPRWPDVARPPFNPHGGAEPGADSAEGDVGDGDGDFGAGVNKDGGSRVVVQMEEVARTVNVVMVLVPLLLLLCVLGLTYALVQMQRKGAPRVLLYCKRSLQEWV
Sequence of individual catalytic domain of human MT3-MMP (human) (P51512 32-607): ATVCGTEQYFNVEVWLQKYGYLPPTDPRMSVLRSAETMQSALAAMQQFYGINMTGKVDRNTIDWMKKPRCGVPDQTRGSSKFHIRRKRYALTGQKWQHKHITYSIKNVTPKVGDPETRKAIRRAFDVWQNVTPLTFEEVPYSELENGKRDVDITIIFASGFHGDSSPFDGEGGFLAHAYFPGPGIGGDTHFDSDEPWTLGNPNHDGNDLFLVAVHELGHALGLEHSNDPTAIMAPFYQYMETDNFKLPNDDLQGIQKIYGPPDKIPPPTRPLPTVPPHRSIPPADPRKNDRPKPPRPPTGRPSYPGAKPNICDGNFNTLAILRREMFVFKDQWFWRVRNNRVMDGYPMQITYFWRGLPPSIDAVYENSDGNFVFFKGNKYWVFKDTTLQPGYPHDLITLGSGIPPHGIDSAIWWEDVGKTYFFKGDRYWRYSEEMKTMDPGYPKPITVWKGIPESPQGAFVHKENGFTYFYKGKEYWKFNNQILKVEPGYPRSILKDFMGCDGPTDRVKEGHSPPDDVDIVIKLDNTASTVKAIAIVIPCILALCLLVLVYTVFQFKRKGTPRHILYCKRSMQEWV
Sequence of individual catalytic domain of human MT6-MMP (human) (Q9NPA2 22-562): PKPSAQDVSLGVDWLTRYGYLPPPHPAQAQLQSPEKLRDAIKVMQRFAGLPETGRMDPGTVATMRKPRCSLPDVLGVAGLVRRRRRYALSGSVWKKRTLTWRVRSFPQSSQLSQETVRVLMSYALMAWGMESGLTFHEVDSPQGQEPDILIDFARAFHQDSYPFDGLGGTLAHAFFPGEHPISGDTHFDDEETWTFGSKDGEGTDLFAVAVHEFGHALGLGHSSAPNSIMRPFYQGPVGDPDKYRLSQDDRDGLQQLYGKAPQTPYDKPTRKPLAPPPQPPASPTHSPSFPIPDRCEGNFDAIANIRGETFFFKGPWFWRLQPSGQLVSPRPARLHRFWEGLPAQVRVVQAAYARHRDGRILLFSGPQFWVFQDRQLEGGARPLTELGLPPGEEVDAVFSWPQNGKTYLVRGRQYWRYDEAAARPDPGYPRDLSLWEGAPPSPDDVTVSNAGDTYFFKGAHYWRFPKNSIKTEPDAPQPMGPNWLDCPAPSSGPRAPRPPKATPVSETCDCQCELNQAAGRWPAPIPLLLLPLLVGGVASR

B1: 3A2 Fab (Fab, V domains shown)
VH: EVQLVESGGGLVQPGGSLRLSCAASGFNLSSSSMHWVRQAPGKGLEWVASIYPSYSYTYYADSVKGRFTISADTSKNTAYLQMNSLRAEDTAVYYCARVKLQKDKSHQWIRNLVATPYGRYVMDYWGQGTLVTVSS
VL: DIQMTQSPSSLSASVGDRVTITCRASQSVSSAVAWYQQKPGKAPKLLIYSASSLYSGVPSRFSGSRSGTDFTLTISSLQPEDFATYYCQQYGYPITFGQGTKVEIK
On to B1, for which the IC50 of inhibition of the CAT of MT2-MMP (5 nM), cleavage of Mca-PLGL-Dpa-AR-NH2 (1 uM); 3A2 Fab 0-5,000 nM in assay [1] came out at 1800 nM. The IC50 of inhibition of the CAT of MT5-MMP (5 nM), cleavage of Mca-PLGL-Dpa-AR-NH2 (1 uM); 3A2 Fab 0-5,000 nM in assay [2] was 425 nM. Also, the IC50 of inhibition of the CAT of MT3-MMP (5 nM), cleavage of Mca-PLGL-Dpa-AR-NH2 (1 uM); 3A2 Fab 0-5,000 nM in assay [3] is 335 nM. Also, in assay [4], the IC50 of inhibition of the CAT of MT4-MMP (5 nM), cleavage of Mca-PLGL-Dpa-AR-NH2 (1 uM); 3A2 Fab 0-5,000 nM is more than 5000 nM. This molecule gave an IC50 of inhibition of the CAT of MT6-MMP (5 nM), cleavage of Mca-PLGL-Dpa-AR-NH2 (1 uM); 3A2 Fab 0-5,000 nM in assay [5] of more than 5000 nM.
